The values that follow come from US20230128075A1 (University of Texas, published 2023).

Assay [1] concerns the target T1, ADP-HSP70 (ADP-enriched HSP70) (Homo sapiens (Human), UniProt P0DMV8 1-641).
T1 construct: also called ADP-HSP70 complexes
Description: BLI, 77A on sensor. Here is the method:
HSP70 was expressed in SF9 cells. Affinity chromatography using resins selective for ADP or ATP-binding proteins were used to enrich bulk preparations of the correspondingly bound HSP70 recombinant protein. Protein concentrations, determined after elution, were measured so that equal concentrations could be used in subsequent assays. For BLI-based assays, antibodies and reagents were diluted out onto microwell plates and loaded into the instrument. Antibodies being tested were immobilized onto dip-and-read sensors and then observed for kinetics during binding to ATP or ADP-enriched HSP70. For ELISA, the relevant enriched HSP70 proteins were directly coated onto ELISA plate wells overnight. Test antibodies were then serially diluted across the plate wells, and detected using an appropriate secondary antibody-HRP conjugate. The plates were developed using a TMB substrate, and the O.D. stabilized using an acid stop solution.

The next assay concerns the target T2, 614.
T2 construct: lane label in panel C
Description: immunoprecipitation from cell lysate (CL) with 77A, Western blot GFP [panel C]. How it is done: (§1) IP of cell extracts with 77A was followed by detection of proteins by Western blotting (WB) with an anti-GFP antibody (B). Smaller deletions were then generated for finer mapping (C), and the indicated IPs were performed from cell lysates (CL) or culture media supernatants (CM). Loading was confirmed with an a-light chain (LC) antibody. The putative binding domain for 77A is indicated on a molecular model of HSP70 representing the relevant region of the protein (D). The exact amino acids that comprise the 77A epitope were determined using alanine scanning analysis, and the results are shown in (E), and the ribbon diagram showing the primary and secondary critical sites is shown in (F).
(§2) Alanine scanning analysis was performed to identify key amino acids in HSP70 with which 77A interacts (FIG. 3E).

Another assay deals with T3, 534.
T3 construct: lane label in panels A and B
T3 sequence (chain, as listed by the source limits assumed): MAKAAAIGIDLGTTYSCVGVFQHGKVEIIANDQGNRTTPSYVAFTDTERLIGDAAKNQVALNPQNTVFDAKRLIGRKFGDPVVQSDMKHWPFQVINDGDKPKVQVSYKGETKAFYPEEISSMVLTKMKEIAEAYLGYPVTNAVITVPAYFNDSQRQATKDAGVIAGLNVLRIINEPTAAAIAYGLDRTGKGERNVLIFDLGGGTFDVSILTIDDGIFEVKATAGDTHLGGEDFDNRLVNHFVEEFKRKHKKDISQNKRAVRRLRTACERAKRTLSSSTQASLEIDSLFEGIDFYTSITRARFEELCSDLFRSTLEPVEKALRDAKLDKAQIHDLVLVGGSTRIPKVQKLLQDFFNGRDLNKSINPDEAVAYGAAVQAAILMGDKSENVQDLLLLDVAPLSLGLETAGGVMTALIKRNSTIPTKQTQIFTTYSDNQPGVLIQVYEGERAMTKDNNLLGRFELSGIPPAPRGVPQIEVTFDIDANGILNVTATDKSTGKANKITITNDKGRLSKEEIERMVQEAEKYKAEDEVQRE
Description: immunoprecipitation of cell extracts with 77A, Western blot with anti-GFP [panel B]. Here is the method: as §1, §2
For orientation: In western blotting, separated proteins are transferred to a membrane and probed.

T2 sequence (chain, as listed by the source limits assumed): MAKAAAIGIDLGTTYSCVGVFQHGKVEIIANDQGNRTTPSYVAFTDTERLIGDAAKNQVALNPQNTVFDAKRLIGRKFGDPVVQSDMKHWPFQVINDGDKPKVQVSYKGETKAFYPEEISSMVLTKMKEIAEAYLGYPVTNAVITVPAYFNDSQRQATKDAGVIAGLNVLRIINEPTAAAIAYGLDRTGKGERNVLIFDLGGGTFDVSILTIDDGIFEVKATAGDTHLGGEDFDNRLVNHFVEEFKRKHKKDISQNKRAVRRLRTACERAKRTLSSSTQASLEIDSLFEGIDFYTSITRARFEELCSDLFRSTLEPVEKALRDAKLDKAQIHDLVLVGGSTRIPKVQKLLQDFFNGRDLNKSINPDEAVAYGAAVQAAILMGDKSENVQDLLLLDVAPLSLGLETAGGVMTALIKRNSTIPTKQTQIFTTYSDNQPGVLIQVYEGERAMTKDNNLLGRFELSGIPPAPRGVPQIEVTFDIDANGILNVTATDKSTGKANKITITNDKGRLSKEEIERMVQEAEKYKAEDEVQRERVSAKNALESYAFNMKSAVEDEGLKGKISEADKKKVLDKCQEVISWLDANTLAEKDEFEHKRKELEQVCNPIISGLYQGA
T1 sequence (P0DMV8 whole entry): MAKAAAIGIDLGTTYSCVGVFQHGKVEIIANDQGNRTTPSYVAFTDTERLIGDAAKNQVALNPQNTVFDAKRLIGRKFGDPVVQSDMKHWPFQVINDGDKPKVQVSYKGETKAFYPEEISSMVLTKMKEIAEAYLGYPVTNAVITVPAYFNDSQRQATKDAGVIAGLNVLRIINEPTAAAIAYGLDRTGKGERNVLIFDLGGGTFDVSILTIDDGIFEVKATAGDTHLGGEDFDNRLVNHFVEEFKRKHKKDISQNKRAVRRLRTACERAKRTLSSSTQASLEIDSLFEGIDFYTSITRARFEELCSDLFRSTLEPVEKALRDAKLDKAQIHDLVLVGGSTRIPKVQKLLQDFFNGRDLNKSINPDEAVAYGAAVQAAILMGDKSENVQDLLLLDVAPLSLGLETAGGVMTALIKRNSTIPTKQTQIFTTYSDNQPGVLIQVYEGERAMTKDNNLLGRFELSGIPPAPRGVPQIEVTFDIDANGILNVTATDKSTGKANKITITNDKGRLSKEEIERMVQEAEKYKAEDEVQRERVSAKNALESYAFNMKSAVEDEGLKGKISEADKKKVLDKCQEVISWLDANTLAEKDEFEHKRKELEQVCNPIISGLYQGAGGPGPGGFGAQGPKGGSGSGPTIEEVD

B1: 77A antibody (clone 77A, murine anti-HSP70 mAb) (antibody, V domains shown)
VH: QIQLVQSGPELKKPGETVKISCKASGYTFTNYGMNWVKQAPGKGLKWMGWINTYTGEPTYADDFKGRFAFSLETSATTAYLQINNLKNEDTATYFCARYDHAMDYWGQGTSVTVSS
VL: DIVMSQSPSSLAVSAGEKVTMSCKSSQSLLNSGTRKNYLAWYQQKPGQSPKLLIYWTSTRESGVPDRFTGSGSGTDFTLTINSVQAEDLAVYYCKQSYTLYTFGGGTKLEIK
notes: Murine hybridoma mAb; its isotype control is IgG2B; also called mAb 77A
B1: the “fold greater affinity (KD) than for ATP-enriched HSP70” value in assay [1] is not below 4 fold. Moreover, the binding result with 614 and with 534 was “binds” in each case.
